Where no end group is shown, it is not given here. The star is where a group is joined. Biotin = O=C1N[C@H]2[C@H](CS[C@H]2CCCCC(=O)*)N1
Key:
Settings in all cases: both partners purified
[1] = target: T1, Biotin-C6-SEEGKPQLVGRFQVTSSK (N-terminally biotinylated 18-mer RFQV peptide derived from WNK4) (human); assay: grating-coupled interferometry (Creoptix WAVE); traditional multicycle kinetics; biotin-C6-18-mer peptide captured on streptavidin chip, cleaved OSR1 as analyte, 25 µM in 1:3 dilutions (six points); 25°C, HBS EP
T1 construct: With No Lysine kinase 4 (WNK4), 18-mer with the RFQV motif; also called biotinylated 18-mer peptide; biotin 18-mer peptide; source: synthetic peptide, bought: GL Biochem, Shanghai Ltd
T1 peptide: {Biotin-C6}-SEEGKPQLVGRFQVTSSK

[2] = target: T1, Biotin-C6-SEEGKPQLVGRFQVTSSK …; assay: grating-coupled interferometry (Creoptix WAVE); waveRAPID; biotin-C6-18-mer peptide captured on streptavidin chip (about 400 pg/mm^2), cleaved SPAK or OSR1 as analyte at 2 µM; 25°C, HBS EP; heterogeneous ligand model for SPAK
[3] = target: T2, biotin-SPAK (uncleaved human SPAK CCT domain, residues 441-545, biotinylated on the AviTag) (human, biotin on the lysine of the AviTag (…)); assay: grating-coupled interferometry (Creoptix WAVE); traditional multicycle kinetics; biotin-SPAK or biotin-OSR immobilised on streptavidin chip, 18-mer peptide as analyte, 50 µM in 3-fold dilutions (six points); 25°C, HBS EP; one-to-one fit
T2 construct: STE20/SPS1-related proline/alanine-rich kinase (SPAK), human, conserved C-terminal (CCT) domain, residues 441-545; the TEV site was not cut in this form; also called hSPAK-CCT; source: E. coli BL21-CodonPlus (DE3)-RIL, purified (HisTrap, SEC), biotinylated with BirA; not shown: His6, N-terminal, kept; AviTag, N-terminal, kept

[4] = target: T3, biotin-OSR (uncleaved human OSR1 CCT domain, residues 423-527, biotinylated on the AviTag) (human, biotin on the lysine of the AviTag (…)); assay: grating-coupled interferometry (Creoptix WAVE); waveRAPID; biotin-SPAK or biotin-OSR immobilised on streptavidin chip (about 1000 pg/mm^2), 18-mer peptide as analyte at 5 µM; 25°C, HBS EP (10 mM HEPES pH 7.4, 150 mM NaCl, 3 mM EDTA, 0.005% Tween20); 1:1 kinetic model, global fit
T3 construct: Oxidative Stress Responsive 1 (OSR1) kinase, human, conserved C-terminal (CCT) domain, residues 423-527; the TEV site was not cut in this form; also called hOSR1-CCT; hOSR-CCT; source: E. coli BL21-CodonPlus (DE3)-RIL, purified (HisTrap, SEC), biotinylated with BirA; not shown: His6, N-terminal, kept; AviTag, N-terminal, kept
T3 sequence (chain, as listed by the source): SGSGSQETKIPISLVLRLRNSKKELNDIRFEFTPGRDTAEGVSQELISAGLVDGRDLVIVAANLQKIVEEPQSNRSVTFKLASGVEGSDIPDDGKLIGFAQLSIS

[5] = target: T2, biotin-SPAK (uncleaved human SPAK CCT …); assay: as above

B1: cleaved OSR1 (human OSR1 CCT domain, residues 423-527, tags removed with TEV protease) (domain or fragment)
chain: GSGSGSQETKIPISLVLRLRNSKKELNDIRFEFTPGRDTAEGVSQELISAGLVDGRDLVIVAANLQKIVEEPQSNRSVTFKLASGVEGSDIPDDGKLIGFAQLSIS
notes: glycine of the TEV site (ENLYFQ/G) left after cleavage; OSR1, human, CCT domain, residues 423-527; also called cleaved hOSR1-CCT; hOSR1-CCT; source: E. coli BL21-CodonPlus (DE3)-RIL, purified (HisTrap, SEC, TEV cleavage, SEC in HBS EP); not shown: His6, N-terminal, cleaved; AviTag, N-terminal, cleaved
Kd [1]: 6600 nM | Kd [2]: 2100 nM

B2: 18-mer RFQV peptide derived from WNK4 (SEEGKPQLVGRFQVTSSK), unbiotinylated (peptide)
peptide: SEEGKPQLVGRFQVTSSK
notes: With No Lysine kinase 4 (WNK4), 18-mer with the RFQV motif; also called 18-mer peptide; RFQV 18-mer peptide; source: synthetic peptide, bought: GL Biochem, Shanghai Ltd
Kd [3]: 1160 nM | Kd [4]: 2500 nM | Kd [5]: 1100 nM

Source: paper doi:10.1101/2021.08.19.456998, “Structures of the Human SPAK and OSR1 Conserved C-Terminal (CCT) Domains” (bioRxiv, 2021)
